The target of this assay is CEA (Carcinoembryonic Antigen) (UniProt P06731). Kind of assay: competition ELISA on CEA-coated plates; competitor of murine MAK BW 431/26 (5 ng/ml). On the technique in general: In an ELISA, binding on a coated surface is turned into a signal by an enzyme label.
Chain of UniProt P06731 (P06731 35-685 limits assumed): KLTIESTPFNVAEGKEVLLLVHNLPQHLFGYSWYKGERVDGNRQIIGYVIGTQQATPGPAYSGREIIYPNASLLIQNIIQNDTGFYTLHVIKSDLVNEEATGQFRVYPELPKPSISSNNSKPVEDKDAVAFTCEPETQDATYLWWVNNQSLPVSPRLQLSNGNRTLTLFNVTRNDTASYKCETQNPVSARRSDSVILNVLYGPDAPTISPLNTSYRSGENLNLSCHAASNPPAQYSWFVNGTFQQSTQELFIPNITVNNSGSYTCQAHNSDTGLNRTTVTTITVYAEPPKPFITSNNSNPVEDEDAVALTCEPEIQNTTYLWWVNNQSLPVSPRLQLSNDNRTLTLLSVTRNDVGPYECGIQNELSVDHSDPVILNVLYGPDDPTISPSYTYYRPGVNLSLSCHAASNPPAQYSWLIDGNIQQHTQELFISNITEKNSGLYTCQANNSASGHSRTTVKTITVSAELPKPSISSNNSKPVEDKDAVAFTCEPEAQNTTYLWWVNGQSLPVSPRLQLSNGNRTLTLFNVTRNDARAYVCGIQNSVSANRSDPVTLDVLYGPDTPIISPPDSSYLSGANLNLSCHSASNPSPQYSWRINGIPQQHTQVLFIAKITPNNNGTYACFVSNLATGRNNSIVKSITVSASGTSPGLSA

humanized MAK BW 431/26 (antibody) yielded a molar excess of competitor for 50 % inhibition of 200 molar excess.

The values above are taken from patent EP0501215B1.
